In this test the target is Kcnj13 (Kir7.1) from D. rerio fused to mCherry (D. rerio). Nature of the test: mass photometry; OneMP mass photometer (Refeyn), buffer E, sample diluted 1:10 immediately before analysis, mass calibrated with NativeMark; protein solubilised in DDM with CHS.

Usually stoichiometry N stands for a count of units in the complex or per binding partner.

Consider “Kcnj13 (Kir7.1) from D. rerio fused to mCherry (natural protein)”, for which the stoichiometry N came out at 4.

The values are drawn from PMC10482006.
